# Source: patent publication US20170307631A1, “METHODS, SYSTEMS AND PRODUCTS FOR PREDICTING RESPONSE OF TUMOR CELLS TO A THERAPEUTIC AGENT AND TREATING A PATIENT ACCORDING TO THE PREDICTED RESPONSE” (Merrimack Pharmaceuticals, Inc., priority 2008, published 2017)
# What was measured:
# ErbB2 = ErbB2 (Homo sapiens, UniProt P04626); details: cited from earlier work
# [1] = test system: pErbB3 and pAKT in OVCAR8-HER2 cells; experiment: Inhibition of pErbB3 and pAKT by H3×B1D2 in OVCAR8-HER2 cells; format: cell-based; details: OVCAR8-HER2 (higher ErbB2 expression) compared to OVCAR8
# Experimental: (§1) For stimulation of the cells, the cells are seeded in duplicate wells with 1000 μl complete media at 150,000 cells per well in 12 well tissue culture plates (for 96 half well ELISA) or in duplicate plate of 100 μl complete media at 20,000 cells per well in 96 well tissue culture plates (for 384 well ELISA). These cells are incubated overnight in a humidified atmosphere of 5% CO2, 95% air and 37 degrees Celsius. Cells are then switched to serum free media: RPMI-1640 media (Gibco) supplemented with, 2 mM L-glutamine (Gibco) and units/mL Pen-Strep (Gibco). Starved cells are incubated in a humidified atmosphere of 5% CO2, 95% air and 37 degrees Celsius for 20-24 hours prior to stimulation. For dose-time matrix studies, cells are stimulated with ligand (HRG) at 0, 1, 2, 3, 4, 5, 7, 10, 20, 30, 60 and 120 minutes. […]
# (§2) Levels of protein phosphorylation in the stimulated cells are measured by ELISA. ErbB1, ErbB2, and ErbB3 are measured using R&D Systems Duoset IC kits (ErbB1 DYC1095-E, ErbB2 DYC1768-E, ErbB3 DYC1769-E). […] All ELISAs are visualized with SuperSignal ELISA Pico Chemiluminescent Substrate (Pierce, Catalog #37069) and luminescent signal is measured using a luminometer. […]
# [2] = test system: pErbB3 and pAKT signaling in different cell lines; experiment: Inhibition of HRG-induced pErbB3 and pAKT signaling by H3×B1D2, different cell lines; format: cell-based; details: across different cell lines; 5 nM HRG stimulation, ten-minute lysis
# Experimental: as §1, §2
# [3] = test system: pErbB3 and pAKT in ADRr cells; experiment: Inhibition of pErbB3 and pAKT by H3×B1D2 in ADRr cells; format: cell-based; details: ADRr cells (low ErbB2), computational model and experimental data
# Experimental: as §1, §2
# BT474-M3 xenograft = experiment: Xenograft tumor model treated with H3×B1D2, BT474-M3; format: in vivo, mouse; details: 600 μg/injection every 3 days, negative RGR = tumor regression
# Experimental: (§3) To characterize the in vivo response of tumors to H3×B1D2 treatment, a panel of tumor cell lines was tested in a xenograft tumor model such as described in Example 1. In the xenograft tumor models, mice (nu/nu mice: 4-5 week old female mice, athymic, nude, outbred background; Albino; purchased from Charles River Labs, Wilmington, Mass.) are implanted in the flank with 5×10^6-2×10^7 cells/mouse (depending on cell line) in […] subcutaneous injection. Mice are monitored for initial tumor growth. Tumors are allowed to grow for several days until the mean tumor volume is approximately 150-200 mm^3. The tumor volume is calculated as V=(π/6 (L×W^2). The mice are treated with the H3×B1D2 antibody at a dosage of 600 μg/injection every 3 days (q3d). Control mice are treated with phosphate buffered saline (PBS) or with wild-type HSA (human serum albumin). Tumor volume is measured for 40-80 days.
# (§4) The control and treatment data from the in vivo xenograft experiments was fitted to exponential growth curves, using the following formula: […]
# (§5) wherein V is the tumor volume, Vo is the tumor volume at time zero, k is the exponential growth rate and t is the time. The potency of H3×B1D2 in inhibiting tumor growth was represented as the ratio of treatment and control exponential growth rates for each cell line tested. This ratio was denoted “relative growth rate” (RGR) and is represented as: […]
# IGROV1 xenograft = experiment: Xenograft tumor model treated with H3×B1D2, IGROV1; format: in vivo, mouse; details: 600 μg/injection every 3 days, RGR of 1 = no effect
# Experimental: as §3, §4, §5
# LS180 xenograft = experiment: Xenograft tumor model treated with H3×B1D2, LS180; format: in vivo, mouse; details: 600 μg/injection every 3 days, RGR of 1 = no effect
# Experimental: as §3, §4, §5
# ErbB3 = ErbB3 (Homo sapiens, UniProt P21860); experiment: Ab #6 rate constants measured by Kinexa (inhibitor parameter values); format: binding
# [4] = test system: IGROV1 xenograft tumor model; experiment: Xenograft study with Ab #6 (predicted set), IGROV1; format: in vivo, mouse
# Experimental: (§6) In the xenograft tumor models, mice (nu/nu mice: 3-4 week old female mice, T-cell deficient; outbred; Albino background; from Charles River Labs, Wilmington, Mass.) are implanted in the right flank with 3.5×10^6-3×10^8 cells/mouse (depending on cell line) in 200 μl via subcutaneous injection. Mice are monitored for initial tumor growth. Tumor cells are allowed to grow for several days until the tumor volume is approximately 200 mm^3. The tumor volume is calculated as V=(π/6 (L×W^2). The mice are treated with the Ab #6 antibody at a dosage of 600 μg/injection every 3 days (qd3). Control mice are treated with phosphate buffered saline (PBS).
# (§7) To test these model predictions, three additional in vivo xenograft studies were performed. The IGROV1, OVCAR8 and SKOV3 cell lines were used in xenograft studies conducted as described in Example 1, wherein mice were treated with 600 μg of Ab #6 every 3 days or with PBS as a control. The xenograft responses, as determined by changes in tumor volume (in mm^3) over time, are summarized in the graphs of FIGS. 9A-9C. Again, the Growth Rate Reduction (GRR) value for each cell line was calculated using the following formula:
# (§8) Growth Rate Reduction=1−(Ab #6 Growth Rate)/(PBS Growth Rate)
# [5] = test system: SKOV3 xenograft tumor model; experiment: Xenograft study with Ab #6 (predicted set), SKOV3; format: in vivo, mouse
# Experimental: as §6, §7, §8
# [6] = test system: OVCAR8 xenograft tumor model; experiment: Xenograft study with Ab #6 (predicted set), OVCAR8; format: in vivo, mouse
# Experimental: as §6, §7, §8
# [7] = test system: ADRr xenograft tumor model; experiment: Xenograft efficacy study with Ab #6, ADRr model; format: in vivo, mouse
# Text: (§9) In this example, four xenograft tumor models were used to identify tumor cell lines that responded to treatment with the anti-ErbB3 antibody Ab #6. The four xenograft tumor models studied represent different indications: MALME3M (melanoma cancer line; ATCC No. HTB-64), ADRr (ovarian cancer cell line; NCI-60, cosmic sample ID No. 905987), ACHN (renal cancer cell line; ATCC No. CRL-1611) and DU145 (prostate cancer cell line; ATCC No. HTB-81).
# as §6
# (§10) Tumor volume is measured for 60-80 days.
# (§11) As a measure of responsiveness of the tumor to Ab #6, the exponential growth rate is determined, which described the experimental data best. The following formula is used to describe the exponential growth. […]
# [8] = test system: MALME3M xenograft tumor model; experiment: Xenograft efficacy study with Ab #6, MALME3M model; format: in vivo, mouse
# Text: as §9, §6, §10, §11
# [9] = test system: DU145 xenograft tumor model; experiment: Xenograft efficacy study with Ab #6, DU145 model; format: in vivo, mouse
# Text: as §9, §6, §10, §11
# [10] = test system: ACHN xenograft tumor model; experiment: Xenograft efficacy study with Ab #6, ACHN model; format: in vivo, mouse
# Text: as §9, §6, §10, §11
# [11] = 600 μg of Ab #6 every 3 days vs PBS
# [12] = Ab #6 600 μg/injection every 3 days vs PBS, negative GRR set to zero
# [13] = Ab #6 600 μg/injection every 3 days vs PBS
molecule,measurement,setting,value
CS(=O)(=O)CCNCc1ccc(-c2ccc3ncnc(Nc4ccc(OCc5cccc(F)c5)c(Cl)c4)c3c2)o1 [lapatinib],Lapatinib on-rate for binding to ErbB2 or 2-3 dimers before unit conversion,ErbB2,Unit conversion calculated as 2.95e3 M^−1s^−1/
"H3×B1D2: bispecific antibody, anti-ErbB3 single chain antibody H3 linked to anti-ErbB2 single chain antibody B1D2, SEQ ID NO: 41",inhibition percentage of pErbB3 and pAKT,[1],greater inhibition percentage
same,IC50 of inhibition of pErbB3 and pAKT signaling,[2],did not greatly change
same,percentage of inhibition of pErbB3 and pAKT,[3],poor percentage of inhibition
same,relative growth rate (RGR = kH3×B1D2/kcontrol),BT474-M3 xenograft,negative
same,relative growth rate (RGR = kH3×B1D2/kcontrol),IGROV1 xenograft,greater than 1
same,relative growth rate (RGR = kH3×B1D2/kcontrol),LS180 xenograft,greater than 1
"Ab #6: anti-ErbB3 antibody described in WO 2008/100624, VH and VL sequences of SEQ ID NOs: 1 and 2 (antibody, V domains shown) VH: EVQLLESGGGLVQPGGSLRLSCAASGFTFSHYVMAWVRQAPGKGLEWVSSISSSGGWTLYADSVKGRFTISRDNSKNTLYLQMNSLRAEDTAVYYCTRGLKMATIFDYWGQGTLVTVSS VL: QSALTQPASVSGSPGQSITISCTGTSSDVGSYNVVSWYQQHPGKAPKLIIYEVSQRPSGVSNRFSGSKSGNTASLTISGLQTEDEADYYCCSYAGSSIFVIFGGGTKVTVL",Ab #6 on-rate for binding to ErbB3 before unit conversion,ErbB3,calculated as 1.43e5 M^−1s^−1/(Vmedia*Av/Num_cells).
same,kf Ab #6 _2: Ab #6 inhibitor binding to a second ErbB3,ErbB3; avidity due to volume reduction (Vmedia/Numcells)/Vshell,4.96E−05 molecules^−1 sec^−1
same,kf Ab #6 _1: Ab #6 inhibitor binding to ErbB3,"ErbB3; unit conversion of on-rate/(Vmedia*Av/Num_cells), Num_cells = 30,000 per well",7.15E−11 molecules^−1 sec^−1
same,experimentally observed responsiveness based on GRR value,[4],non-responder
same,GRR [%] (Tumor Growth Rate Reduction),[4]; [11],6.3%
same,experimentally observed responsiveness based on GRR value,[5],responders
same,GRR [%] (Tumor Growth Rate Reduction),[5]; [11],19.6%
same,experimentally observed responsiveness based on GRR value,[6],responders
same,GRR [%] (Tumor Growth Rate Reduction),[6]; [11],91.4%
same,GRR [%] (Tumor Growth Rate Reduction),[7]; [12],0%
same,effect of antibody treatment on tumor growth,[7]; compared to PBS control,did not inhibit tumor growth
same,GRR [%] (Tumor Growth Rate Reduction),[8]; [12],0%
same,effect of antibody treatment on tumor growth,[8]; compared to PBS control,did not inhibit tumor growth
same,GRR [%] (Tumor Growth Rate Reduction),[9]; [13],72.6%
same,effect of antibody treatment on tumor growth,[9]; compared to PBS control,inhibited tumor growth
same,GRR [%] (Tumor Growth Rate Reduction),[10]; [13],28.0%
same,effect of antibody treatment on tumor growth,[10]; compared to PBS control,inhibited tumor growth
